A word on the Km: it is the substrate concentration at which the rate is half of its maximum.

Substrate in the data set: Nc1ncnc2c1ncn2[C@@H]1O[C@H](CO)[C@@H](O)[C@H]1O
Briefly: Absorbance-based assay of ADA in solution. The class given is biochemical, bovine. Particulars: other: ADA in solution, absorbance assay (FIG. 7). As to the method: FIG. 7 is a graph showing the assessment of Km values for ADA in solution using an absorbance-based assay.
The KI value was determined by extrapolation of IC50 values to the point of zero substrate concentration. The method is based on the derivation described by Cheng and Prusoff,^26 as shown below. Km values were obtained using immobilized enzyme reactor columns by plotting the concentration of product formed upon infusion of a given concentration of substrate and fitting the data to the Michaelis-Menten equation. The data was compared to that obtained using a conventional absorbance based assay (see below).^27

B1: adenosine deaminase (ADA) in solution (Bos taurus) (protein)
chain: MAQTPAFNKPKVELHVHLDGAIKPETILYYGRKRGIALPADTPEELQNIIGMDKPLSLPEFLAKFDYYMPAIAGCREAVKRIAYEFVEMKAKDGVVYVEVRYSPHLLANSKVEPIPWNQAEGDLTPDEVVSLVNQGLQEGERDFGVKVRSILCCMRHQPSWSSEVVELCKKYREQTVVAIDLAGDETIEGSSLFPGHVKAYAEAVKSGVHRTVHAGEVGSANVVKEAVDTLKTERLGHGYHTLEDATLYNRLRQENMHFEVCPWSSYLTGAWKPDTEHPVVRFKNDQVNYSLNTDDPLIFKSTLDTDYQMTKNEMGFTEEEFKRLNINAAKSSFLPEDEKKELLDLLYKAYGMPSPASAEQCL
notes: Adenosine deaminase (ADA, Type V, from bovine intestine, EC 3.5.4.4); purchased Sigma-Aldrich (Oakville, Ontario, Canada) Type V (catalogue number not given); host or cells: bovine intestine (tissue-derived)
With B1, the Km worked out at 89 µM.
